We go through 16 molecules from publication PMC7854593, “Molecular mechanism for vitamin C-derived C^5-glyceryl-methylcytosine DNA modification catalyzed by algal TET homologue CMD1” (Nature Communications, 2021).

Data set [1] deals with T1, MBP-fused CMD1 (Chlamydomonas reinhardtii, UniProt A0A2K3D5Z7).
T1 construct: full-length CMD1 with N-terminal MBP via alpha-helical linker and C-terminal His6, tags kept; expressed in E. coli; residues 509-532 disordered in apo crystal, C-terminal region partly degraded in crystals
As to the kind of experiment: X-ray crystal structure, crystals soaked with sodium L-ascorbate. The settings on record: Fe2+ in active site; pH 5.0-5.6 citrate; 400 mM soak; binary complex 7CY5 (2.20 A) and ternary complex with 5mC-DNA 7CY8 (2.40 A); lactone form, monodentate via C2-hydroxyl. The data set is classed as binding.

The target in data set [2] is T2, CMD1 (UniProt A0A2K3D5Z7 1-532). In words: BLI; range over dsDNA7-9; BLI: 20 mM Tris-HCl pH 8.0, 50 mM NaCl, 0.1% Tween-20, 0.5% BSA, 25 C; biotin-DNA on streptavidin sensors, 1:1 fit. Conditions: protein: recombinant; tags: His6-SUMO, cleaved with ULP1; label: 5'-biotin. (In general: BLI is a label-free optical method that tracks binding on a fibre tip over time.)

Data set [3] concerns the target T2, CMD1. In words: BLI; range over six structured DNAs; BLI: 20 mM Tris-HCl pH 8.0, 50 mM NaCl, 0.1% Tween-20, 0.5% BSA, 25 C; biotin-DNA on streptavidin sensors, 1:1 fit. The settings on record: protein: recombinant, tags: His6-SUMO, cleaved with ULP1, label: 5'-biotin.
Data set [4] deals with T2, CMD1. As to the kind of experiment: BLI; range over dsDNA1-4; BLI: 20 mM Tris-HCl pH 8.0, 50 mM NaCl, 0.1% Tween-20, 0.5% BSA, 25 C; biotin-DNA on streptavidin sensors, 1:1 fit. Conditions: protein: recombinant; tags: His6-SUMO, cleaved with ULP1; label: 5'-biotin.
Data set [5] deals with T2, CMD1. In words: BLI; BLI: 20 mM Tris-HCl pH 8.0, 50 mM NaCl, 0.1% Tween-20, 0.5% BSA, 25 C; biotin-DNA on streptavidin sensors, 1:1 fit. Conditions: protein: recombinant, tags: His6-SUMO, cleaved with ULP1, label: 5'-biotin.
Data set [6] addresses T3, MBP-CMD1 (UniProt A0A2K3D5Z7 1-532). Described as above. The settings on record: protein: recombinant; tags: N-terminal MBP via alpha-helical linker; C-terminal His6; label: 5'-biotin; 10 bp palindromic duplex, 3' overhang 4 nt on both strands.
In data set [7] the target is T2, CMD1. In words: BLI; range over dsDNA5-6; BLI: 20 mM Tris-HCl pH 8.0, 50 mM NaCl, 0.1% Tween-20, 0.5% BSA, 25 C; biotin-DNA on streptavidin sensors, 1:1 fit. Conditions: protein: recombinant; tags: His6-SUMO, cleaved with ULP1; label: 5'-biotin.
In data set [8] the target is T3, MBP-CMD1. As to the kind of experiment: crystal structure; Fe2+; BLI: 20 mM Tris-HCl pH 8.0, 50 mM NaCl, 0.1% Tween-20, 0.5% BSA, 25 C; biotin-DNA on streptavidin sensors, 1:1 fit. The settings on record: protein: recombinant; tags: N-terminal MBP via alpha-helical linker; C-terminal His6; 10 bp palindromic duplex, 3' overhang 4 nt on both strands.

T2 sequence (A0A2K3D5Z7 whole entry): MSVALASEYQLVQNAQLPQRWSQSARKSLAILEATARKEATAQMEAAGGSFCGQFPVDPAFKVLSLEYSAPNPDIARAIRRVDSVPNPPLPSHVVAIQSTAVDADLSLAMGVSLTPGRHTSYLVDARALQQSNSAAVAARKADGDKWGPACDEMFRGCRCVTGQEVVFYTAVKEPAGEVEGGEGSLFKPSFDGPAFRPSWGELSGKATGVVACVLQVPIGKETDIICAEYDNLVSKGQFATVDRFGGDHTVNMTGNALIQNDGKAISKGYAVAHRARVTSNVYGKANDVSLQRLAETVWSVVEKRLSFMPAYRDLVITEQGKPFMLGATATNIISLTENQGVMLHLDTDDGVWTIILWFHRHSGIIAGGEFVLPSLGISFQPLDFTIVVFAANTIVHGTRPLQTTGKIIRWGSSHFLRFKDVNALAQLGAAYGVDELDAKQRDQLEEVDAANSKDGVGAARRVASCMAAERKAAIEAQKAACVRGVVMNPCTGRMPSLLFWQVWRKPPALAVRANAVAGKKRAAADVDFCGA
T3 sequence (A0A2K3D5Z7 whole entry): as above
T1 sequence (A0A2K3D5Z7 whole entry, the tested form may be a part): as the sequence (A0A2K3D5Z7 whole entry) above

As to `O=C1O[C@H]([C@@H](O)CO)C(O)=C1O` [VC], the “X-ray crystal structure, crystals soaked with sodium L-ascorbate” value in data set [1] is reported as “crystals of CMD1 in complex with VC were obtained by soaking the apo CMD1 crystals”.

B1: dsDNA8 (10-30 bp) (dsDNA)
DNA 1: ACTTACTGCCAATATAGTAT
DNA 2: ATACTATATTGGCAGTAAGT
As usually defined, the Kd is the equilibrium constant for the complex coming apart. With B1, the Kd in data set [2] is around 1930 nM.

B2: bubble DNA (structured_DNA)
DNA 1: GCTTTAACTTACATACCCCCCCCCCTAGTATGCGTATTGC
DNA 2: GCAATACGCATACTATTTTTTTTTTTATGTAAGTTAAAGC
With B2, the Kd in data set [3] (bubble) is around 1380 nM.

B3: dsDNA2 (40 bp, AT-rich) (dsDNA)
DNA 1: ATACTTACGAATCTGAACTTAGATCCTAATATACATTCTA
DNA 2: TAGAATGTATATTAGGATCTAAGTTCAGATTCGTAAGTAT
For B3, in data set [4], the Kd is around 2220 nM. TTTTTTCTTTTTTCTTTTTTCTTTTTTCTTTTTTCTTTTT (ssDNA) [ssDNA (40 nt)]: the Kd in data set [5] amounted to 2770 nM.

B4: dsDNA9 (10-30 bp) (dsDNA)
DNA 1: AACTTACATAAATGCCAATATAGTATGCGT
DNA 2: ACGCATACTATATTGGCATTTATGTAAGTT
For the molecule B4, the Kd in data set [2] was around 1930 nM.

B5: 14-nt 5mC-DNA (BLI) (dsDNA)
DNA 1: CCCGCGCGGGATGT
DNA 2: CCCGCGCGGGATGT
modifications: 5mC at position 3 of both strands
Turning to B5, the Kd is 810 ± 30 nM in data set [6] and 2010 ± 110 nM in data set [5] (10 bp palindromic duplex, 3' overhang 4 nt on both strands).

B6: dsDNA3 (40 bp, GC-rich) (dsDNA)
DNA 1: GCTGGCCCTGACATGGGTGCCAGCGTAGTGCGCGTAGCGC
DNA 2: GCGCTACGCGCACTACGCTGGCACCCATGTCAGGGCCAGC
Consider B6, for which, in data set [4], the Kd is around 2220 nM.

B7: dsDNA4 (40 bp, GC-rich) (dsDNA)
DNA 1: GACATCGGCGCGGGGTTCAGCCCCGGCCGTATTGGGGCTC
DNA 2: GAGCCCCAATACGGCCGGGGCTGAACCCCGCGCCGATGTC
Turning to B7, in data set [4], the Kd is around 2220 nM.

B8: Y-DNA (structured_DNA)
DNA 1: GCTTTAACTTACATAAATGCCAATATAGTATGCGTATTGC
DNA 2: TACCGCATACGCCTATATTGGCATTTATGTAAGTTAAAGC
B8: the Kd in data set [3] (fork) was around 1380 nM.

B9: dsDNA5 (40 bp, 5mC) (dsDNA)
DNA 1: GCTTTAACTTACATAAATGCCAATATAGTATGCGTATTGC
DNA 2: GCAATACGCATACTATATTGGCATTTATGTAAGTTAAAGC
modifications: one or two 5mC
For B9, in data set [7], the Kd is around 2400 nM.

B10: 5'-flap DNA (structured_DNA)
DNA 1: GCTTTAACTTACATAAATGCCAATATAGTATGCGTATTGC
DNA 2: TACCGCATACGCCTATATTGGCATTTATGTAAGTTAAAGC
DNA 3: GCAATACGCATA
Turning to B10, the Kd in data set [3] (5' flap) was around 1380 nM.

B11: 3'-flap DNA (structured_DNA)
DNA 1: GCTTTAACTTACATAAATGCCAATATAGTATGCGTATTGC
DNA 2: TACCGCATACGCCTATATTGGCATTTATGTAAGTTAAAGC
DNA 3: GCGTATGCGGTA
On to B11, for which the Kd in data set [3] (3' flap) is around 1380 nM.

B12: dsDNA1 (40 bp, AT-rich) (dsDNA)
DNA 1: GCTTTAACTTACATAAATGCCAATATAGTATGCGTATTGC
DNA 2: GCAATACGCATACTATATTGGCATTTATGTAAGTTAAAGC
On to B12, for which the Kd in data set [4] is around 2220 nM.

B13: dsDNA6 (40 bp, 5mC) (dsDNA)
DNA 1: GCTTTAACTTACATAAATGCCAATATAGTATGCGTATTGC
DNA 2: GCAATACGCATACTATATTGGCATTTATGTAAGTTAAAGC
modifications: one or two 5mC
On to B13, for which, in data set [7], the Kd was around 2400 nM.

B14: 14-nt DNA (crystal), unmodified (dsDNA)
DNA 1: CCCGCGCGGGATGT
DNA 2: CCCGCGCGGGATGT
As to B14, in data set [8], the binding result is listed as “binds”.
